Measured values: PMC4227051, “B4GAT1 is the priming enzyme for the LARGE-dependent functional glycosylation of α-dystroglycan” (eLife, 2014)

Key:
[1] = molecular target: T1, B3GNT2 (Homo sapiens, UniProt Q9NY97); assay: radioactive GlcNAc transfer, scintillation counting; type: biochemical; details: 0.1 M MES pH 6.5, 10 mM MnCl2, 37 °C, overnight
T1 construct: catalytic domain residues 35-397, secreted; N-terminal 8xHis-AviTag-sfGFP-TEV fusion kept; HEK293F host, Ni-NTA
T1 sequence (Q9NY97 35-397): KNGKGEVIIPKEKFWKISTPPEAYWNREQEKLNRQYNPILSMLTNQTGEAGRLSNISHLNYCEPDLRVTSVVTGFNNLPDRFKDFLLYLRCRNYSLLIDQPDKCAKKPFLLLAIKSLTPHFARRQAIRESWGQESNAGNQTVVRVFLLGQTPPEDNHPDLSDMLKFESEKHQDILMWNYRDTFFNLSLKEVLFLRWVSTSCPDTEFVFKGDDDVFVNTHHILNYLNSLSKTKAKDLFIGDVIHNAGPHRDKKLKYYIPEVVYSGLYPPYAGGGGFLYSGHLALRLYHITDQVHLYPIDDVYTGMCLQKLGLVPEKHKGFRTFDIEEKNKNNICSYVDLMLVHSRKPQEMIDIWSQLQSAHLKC

[2] = substrate: O=[N+]([O-])c1ccc(O[C@H]2OC[C@@H](O)[C@H](O)[C@H]2O)cc1; assay: purified protein; type: biochemical, Homo sapiens; details: 2 mM UDP-GlcA, 0.1 M MES pH 6.5, 10 mM MnCl2, 5 mM MgCl2, 37 °C, acceptor tested 200 nM to 2 mM
[3] = substrate: O=[N+]([O-])c1ccc(O[C@@H]2OC[C@@H](O)[C@H](O)[C@H]2O)cc1; assay: purified protein; type: biochemical, Homo sapiens; details: 2 mM UDP-GlcA, 0.1 M MES pH 6.5, 10 mM MnCl2, 5 mM MgCl2, 37 °C, 2 h, acceptor tested 200 nM to 2 mM
[4] = 16 h, glucuronyltransferase activity

## CC(=O)N[C@H]1[C@H](Oc2ccc([N+](=O)[O-])cc2)O[C@H](CO)[C@@H](O[C@@H]2O[C@H](CO)[C@H](O)[C@H](O)[C@H]2O)[C@@H]1O [Gal-β4-GlcNAc-β-pNP]
[1]; 2 mM UDP-GlcNAc with UDP-[3H]GlcNAc
  radioactive GlcNAc transfer, scintillation counting: showed clear N-acetylglucosaminyltransferase activity toward the acceptor only with B3GNT2

## CC(=O)N[C@H]1[C@@H](OP(=O)(O)OP(=O)(O)OC[C@H]2O[C@@H](n3ccc(=O)[nH]c3=O)[C@H](O)[C@@H]2O)O[C@H](CO)[C@@H](O)[C@@H]1O [UDP-GlcNAc]
[1]; donor, labelled compound, acceptor Gal-β4-GlcNAc-β-pNP
  radioactive GlcNAc transfer, scintillation counting: radioactive incorporation of GlcNAc into the N-acetyllactosamine acceptor

B1: B3GNT1 (B4GAT1) (Homo sapiens) (protein)
chain: RSVDQVKAQLRTALASGGVLDASGDYRVYRGLLKTTMDPNDVILATHASVDNLLHLSGLLERWEGPLSVSVFAATKEEAQLATVLAYALSSHCPDMRARVAMHLVCPSRYEAAVPDPREPGEFALLRSCQEVFDKLARVAQPGINYALGTNVSYPNNLLRNLAREGANYALVIDVDMVPSEGLWRGLREMLDQSNQWGGTALVVPAFEIRRARRMPMNKNELVQLYQVGEVRPFYYGLCTPCQAPTNYSRWVNLPEESLLRPAYVVPWQDPWEPFYVAGGKVPTFDERFRQYGFNRISQACELHVAGFDFEVLNEGFLVHKGFKEALKFHPQKEAENQHNKILYRQFKQELKAKYPNSPRRC
notes: catalytic domain residues 54-415, secreted, transmembrane domain removed; N-terminal 8xHis-AviTag-sfGFP-TEV fusion cut by TEV; HEK293F host, Ni-NTA
[2]; 2 h
  Km: 3.0 mM
  kcat: 0.087 s⁻¹
  kcat/Km: 29 M⁻¹ s⁻¹
[3]
  Km: 4.0 mM
  kcat: 0.25 s⁻¹
  kcat/Km: 63 M⁻¹ s⁻¹

B2: LARGE (Homo sapiens) (protein)
chain: PSHRRGNHSKTYSMEEGTGDSENLRAGIVAGNSSECGQQPVVEKCETIHVAIVCAGYNASRDVVTLVKSVLFHRRNPLHFHLIADSIAEQILATLFQTWMVPAVRVDFYNADELKSEVSWIPNKHYSGIYGLMKLVLTKTLPANLERVIVLDTDITFATDIAELWAVFHKFKGQQVLGLVENQSDWYLGNLWKNHRPWPALGRGYNTGVILLLLDKLRKMKWEQMWRLTAERELMGMLSTSLADQDIFNAVIKQNPFLVYQLPCFWNVQLSDHTRSEQCYRDVSDLKVIHWNSPKKLRVKNKHVEFFRNLYLTFLEYDGNLLRRELFGCPSEADVNSENLQKQLSELDEDDLCYEFRRERFTVHRTHLYFLHYEYEPAADSTDVTLVAQLSMDRLQMLEAICKHWEGPISLALYLSDAEAQQFLRYAQGSEVLMSRHNVGYHIVYKEGQFYPVNLLRNVAMKHISTPYMFLSDIDFLPMYGLYEYLRKSVIQLDLANTKKAMIVPAFETLRYRLSFPKSKAELLSMLDMGTLFTFRYHVWTKGHAPTNFAKWRTATTPYRVEWEADFEPYVVVRRDCPEYDRRFVGFGWNKVAHIMELDVQEYEFIVLPNAYMIHMPHAPSFDITKFRSNKQYRICLKTLKEEFQQDMSRRYGFAALKYLTAENNS
notes: catalytic domains residues 91-756, secreted; N-terminal 8xHis-AviTag-sfGFP-TEV fusion kept; HEK293F host, Ni-NTA
[2]; [4]
  Km: 6.0 mM
  kcat: 0.005 s⁻¹
  kcat/Km: 0.84 M⁻¹ s⁻¹
